Results: article PMC4754747, “A single residue substitution accounts for the significant difference in thermostability between two isoforms of human cytosolic creatine kinase” (Scientific Reports, 2016)

Target: the molecule itself
Experiment: SEC; gel filtration on Superdex 200 10/300 GL (AKTA purifier) of thermally inactivated samples; heated at 45 °C (thermal inactivation: 0.2 mg/ml enzyme in 5 mM Tris-HCl, pH 8.0, 10 min); dimer to monomers

Row | Protein | binding result | stoichiometry N
1 | human brain-type creatine kinase homodimer (hBBCK) (enzyme, creatine kinase, brain type (B subunit), human; wild type; also called WT hBBCK; hBCK) not shown | binds | 
2 | hBBCK P36L mutant (BP36L) (enzyme, creatine kinase, brain type (B subunit), human, with P36L; Site-directed mutant of m1; details are in the Supplementary Information) not shown |  | 2
